Data reported in patent US20030049831A1 (published 2003).

B1: recombinant FHR-5 (rFHR-5), polyhistidine-tagged, expressed in insect cells (other)
chain: EGTLCDFPKIHHGFLYDEEDYNPFSQVPTGEVFYYSCEYNFVSPSKSFWTRITCTEEGWSPTPKCLRMCSFPFVKNGHSESSGLIHLEGDTVQIICNTGYSLQNNEKNISCVERGWSTPPICSFTKGECHVPILEANVDAQPKKESYKVGDVLKFSCRKNLIRVGSDSVQCYQFGWSPNFPTCKGQVRSCGPPPQLSNGEVKEIRKEEYGHNEVVEYDCNPNFIINGPKKIQCVDGEWTTLPTCVEQVKTCGYIPELEYGYVQPSVPPYQHGVSVEVNCRNEYAMIGNNMITCINGIWTELPMCVATHQLKRCKIAGVNIKTLLKLSGKEFNHNSRIRYRCSDIFRYRHSVCINGKWNPEVDCTEKREQFCPPPPQIPNAQNMTTTVNYQDGEKVAVLCKENYLLPEAKEIVCKDGRWQSLPRCVESTAYCGPPPSINNGDTTSFPLSVYPPGSTVTYRCQSFYKLQGSVTVTCRNKQWSEPPRCLDPCVVSEENMNKNNIQLKWRNDGKLYAKTGDAVEFQCKFPHKAMISSPPFRAICQEGKFEYPICE
notes: Insert amplified from immediately downstream of the signal peptide-encoding region to the end of the ORF (mature FHR-5, 551 amino acids); also called His-tagged recombinant protein; not shown: 10-histidine tag coded by vector pFASTBAC1-His10+ (after a gp67 signal peptide)
B2: Factor H (Sigma) (other, UniProt P08603 19-1231, looked up)
chain: EDCNELPPRRNTEILTGSWSDQTYPEGTQAIYKCRPGYRSLGNVIMVCRKGEWVALNPLRKCQKRPCGHPGDTPFGTFTLTGGNVFEYGVKAVYTCNEGYQLLGEINYRECDTDGWTNDIPICEVVKCLPVTAPENGKIVSSAMEPDREYHFGQAVRFVCNSGYKIEGDEEMHCSDDGFWSKEKPKCVEISCKSPDVINGSPISQKIIYKENERFQYKCNMGYEYSERGDAVCTESGWRPLPSCEEKSCDNPYIPNGDYSPLRIKHRTGDEITYQCRNGFYPATRGNTAKCTSTGWIPAPRCTLKPCDYPDIKHGGLYHENMRRPYFPVAVGKYYSYYCDEHFETPSGSYWDHIHCTQDGWSPAVPCLRKCYFPYLENGYNQNYGRKFVQGKSIDVACHPGYALPKAQTTVTCMENGWSPTPRCIRVKTCSKSSIDIENGFISESQYTYALKEKAKYQCKLGYVTADGETSGSITCGKDGWSAQPTCIKSCDIPVFMNARTKNDFTWFKLNDTLDYECHDGYESNTGSTTGSIVCGYNGWSDLPICYERECELPKIDVHLVPDRKKDQYKVGEVLKFSCKPGFTIVGPNSVQCYHFGLSPDLPICKEQVQSCGPPPELLNGNVKEKTKEEYGHSEVVEYYCNPRFLMKGPNKIQCVDGEWTTLPVCIVEESTCGDIPELEHGWAQLSSPPYYYGDSVEFNCSESFTMIGHRSITCIHGVWTQLPQCVAIDKLKKCKSSNLIILEEHLKNKKEFDHNSNIRYRCRGKEGWIHTVCINGRWDPEVNCSMAQIQLCPPPPQIPNSHNMTTTLNYRDGEKVSVLCQENYLIQEGEEITCKDGRWQSIPLCVEKIPCSQPPQIEHGTINSSRSSQESYAHGTKLSYTCEGGFRISEENETTCYMGKWSSPPQCEGLPCKSPPEISHGVVAHMSDSYQYGEEVTYKCFEGFGIDGPAIAKCLGEKWSHPPSCIKTDCLSLPSFENAIPMGEKKDVYKAGEQVTYTCATYYKMDGASNVTCINSRWTGRPTCRDTSCVNPPTVQNAYIVSRQMSKYPSGERVRYQCRSPYEMFGDEEVMCLNGNWTEPPQCKDSTGKCGPPPPIDNGDITSFPLSVYAPASSVEYQCQNLYQLEGNKRITCRNGQWSEPPKCLHPCVISREIMENYNIALRWTAKQKLYSRTGESVEFVCKRGYRLSSRSHTLRTTCWDGKLEYPTCAKR
notes: Bought protein; also called FH

How the values were obtained:
human C3b = human C3b (human, UniProt P01024 749-1663; P01024 23-667); experiment: ELISA, rFHR-5 coated at 50 to 0.4 pmol/well, C3b at 10 µg/well, detected with polyclonal anti-C3
human C3b, sequence (P01024 749-1663 limits assumed, chain 1 of 2): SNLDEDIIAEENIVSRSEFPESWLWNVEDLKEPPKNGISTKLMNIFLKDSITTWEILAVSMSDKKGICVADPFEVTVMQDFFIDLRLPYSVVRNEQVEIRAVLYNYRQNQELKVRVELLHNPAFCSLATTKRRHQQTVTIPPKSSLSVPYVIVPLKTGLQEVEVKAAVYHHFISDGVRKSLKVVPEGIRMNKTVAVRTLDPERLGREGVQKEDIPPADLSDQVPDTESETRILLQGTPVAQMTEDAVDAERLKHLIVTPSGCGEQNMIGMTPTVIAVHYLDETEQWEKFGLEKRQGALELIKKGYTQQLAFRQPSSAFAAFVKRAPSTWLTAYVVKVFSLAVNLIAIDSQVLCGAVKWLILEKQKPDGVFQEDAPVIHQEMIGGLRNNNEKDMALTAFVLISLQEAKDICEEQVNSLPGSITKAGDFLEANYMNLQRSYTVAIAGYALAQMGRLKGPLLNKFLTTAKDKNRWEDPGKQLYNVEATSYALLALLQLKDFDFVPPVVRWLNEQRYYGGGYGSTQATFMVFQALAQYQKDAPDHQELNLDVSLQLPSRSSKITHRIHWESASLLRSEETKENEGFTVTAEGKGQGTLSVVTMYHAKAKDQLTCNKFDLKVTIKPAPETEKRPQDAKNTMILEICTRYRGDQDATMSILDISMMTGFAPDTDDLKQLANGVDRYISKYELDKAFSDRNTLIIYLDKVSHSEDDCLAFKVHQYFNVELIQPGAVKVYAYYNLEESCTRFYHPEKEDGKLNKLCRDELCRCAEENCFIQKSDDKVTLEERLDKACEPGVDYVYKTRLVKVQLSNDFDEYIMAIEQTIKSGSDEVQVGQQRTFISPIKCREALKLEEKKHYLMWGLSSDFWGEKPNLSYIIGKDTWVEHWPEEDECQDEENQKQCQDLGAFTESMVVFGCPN
human C3b, sequence (P01024 23-667 limits assumed, chain 2 of 2): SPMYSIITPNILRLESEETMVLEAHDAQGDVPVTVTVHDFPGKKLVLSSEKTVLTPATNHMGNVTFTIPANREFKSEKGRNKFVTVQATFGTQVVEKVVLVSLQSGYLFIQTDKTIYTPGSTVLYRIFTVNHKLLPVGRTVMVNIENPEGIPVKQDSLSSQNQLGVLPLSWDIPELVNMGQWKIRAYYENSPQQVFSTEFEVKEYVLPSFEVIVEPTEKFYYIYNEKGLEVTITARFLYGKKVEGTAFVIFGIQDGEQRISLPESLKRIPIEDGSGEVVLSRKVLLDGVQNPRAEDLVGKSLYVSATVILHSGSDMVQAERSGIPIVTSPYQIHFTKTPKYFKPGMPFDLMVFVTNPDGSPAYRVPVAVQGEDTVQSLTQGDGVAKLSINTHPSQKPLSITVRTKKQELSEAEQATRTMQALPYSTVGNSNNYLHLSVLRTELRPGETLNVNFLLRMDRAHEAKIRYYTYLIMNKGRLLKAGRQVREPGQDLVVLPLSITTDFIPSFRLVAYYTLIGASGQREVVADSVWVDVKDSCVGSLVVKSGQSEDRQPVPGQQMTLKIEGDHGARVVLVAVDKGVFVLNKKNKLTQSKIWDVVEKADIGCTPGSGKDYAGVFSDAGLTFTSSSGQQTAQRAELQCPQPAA
Procedure: (§1) Binding of C3b, C5b-6 and HSA to recombinant FHR-5 (panel A) or Factor H (panel B) was determined by ELISA.
(§2) Recombinant FHR-5 or Factor H (Sigma) were serially diluted 1:2 in 0.1 M carbonate buffer, pH 9.3. Duplicate wells in microtitre plates were incubated with dilutions of FHR-5 or Factor H from 50 pmol/well to 0.4 pmol/well. The plates were blocked and wells incubated with human C3b, C5b-6 or HSA at 10 μg/well. C3b was detected by incubation with polyclonal rabbit anti-C3 antibody (1:1000 dilution) followed by peroxidase-conjugated swine anti-rabbit antibody (1:2000 dilution). C5b-6 and HSA were detected using K1.115 (anti-C6) and anti-HSA monoclonal antibodies, respectively, (1:500 dilution) followed by peroxidase-conjugated rabbit anti-mouse antibody (1:2000 dilution). The ELISAs were developed with O-phenylenediamine dihydrochloride. The reaction was stopped with 4M H₂SO₄ and the optical density of the solution was measured at a wavelength of 492 nm using a Behring EL31 microplate reader.

human C5b-6 complexes [1] = biological target: T1, human C5b-6 complexes (human, UniProt P01031 752-1676; P01031 19-673; P13671 22-934); experiment: ELISA, rFHR-5 coated at 50 to 0.4 pmol/well, C5b-6 detected with anti-C6 K1.115
T1 construct: Complex of C5b and C6
T1 sequence (P01031 752-1676 limits assumed, chain 1 of 3): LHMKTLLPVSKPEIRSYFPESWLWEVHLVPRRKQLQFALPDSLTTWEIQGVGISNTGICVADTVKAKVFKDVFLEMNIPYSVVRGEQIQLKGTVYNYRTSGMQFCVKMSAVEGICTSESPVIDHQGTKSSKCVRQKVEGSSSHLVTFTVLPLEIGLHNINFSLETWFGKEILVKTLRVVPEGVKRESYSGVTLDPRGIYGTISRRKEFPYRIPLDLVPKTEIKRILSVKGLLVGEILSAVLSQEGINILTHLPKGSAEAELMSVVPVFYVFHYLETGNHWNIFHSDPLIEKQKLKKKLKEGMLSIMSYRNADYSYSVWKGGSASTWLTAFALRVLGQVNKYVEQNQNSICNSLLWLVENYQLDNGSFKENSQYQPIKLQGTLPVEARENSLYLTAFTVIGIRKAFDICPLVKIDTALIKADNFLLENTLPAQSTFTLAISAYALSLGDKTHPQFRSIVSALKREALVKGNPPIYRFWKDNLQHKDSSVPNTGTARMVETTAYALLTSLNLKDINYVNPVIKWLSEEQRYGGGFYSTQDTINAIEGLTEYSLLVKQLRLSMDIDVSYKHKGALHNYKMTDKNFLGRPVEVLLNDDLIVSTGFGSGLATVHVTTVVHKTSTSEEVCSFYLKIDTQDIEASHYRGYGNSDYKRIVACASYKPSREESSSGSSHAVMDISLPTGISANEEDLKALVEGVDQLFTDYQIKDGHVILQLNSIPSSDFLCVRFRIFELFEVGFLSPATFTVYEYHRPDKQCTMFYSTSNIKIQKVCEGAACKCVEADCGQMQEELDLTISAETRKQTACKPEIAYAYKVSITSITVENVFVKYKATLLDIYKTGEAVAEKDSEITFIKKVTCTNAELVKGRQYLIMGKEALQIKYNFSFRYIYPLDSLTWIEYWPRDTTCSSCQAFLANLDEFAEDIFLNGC
T1 sequence (P01031 19-673 limits assumed, chain 2 of 3): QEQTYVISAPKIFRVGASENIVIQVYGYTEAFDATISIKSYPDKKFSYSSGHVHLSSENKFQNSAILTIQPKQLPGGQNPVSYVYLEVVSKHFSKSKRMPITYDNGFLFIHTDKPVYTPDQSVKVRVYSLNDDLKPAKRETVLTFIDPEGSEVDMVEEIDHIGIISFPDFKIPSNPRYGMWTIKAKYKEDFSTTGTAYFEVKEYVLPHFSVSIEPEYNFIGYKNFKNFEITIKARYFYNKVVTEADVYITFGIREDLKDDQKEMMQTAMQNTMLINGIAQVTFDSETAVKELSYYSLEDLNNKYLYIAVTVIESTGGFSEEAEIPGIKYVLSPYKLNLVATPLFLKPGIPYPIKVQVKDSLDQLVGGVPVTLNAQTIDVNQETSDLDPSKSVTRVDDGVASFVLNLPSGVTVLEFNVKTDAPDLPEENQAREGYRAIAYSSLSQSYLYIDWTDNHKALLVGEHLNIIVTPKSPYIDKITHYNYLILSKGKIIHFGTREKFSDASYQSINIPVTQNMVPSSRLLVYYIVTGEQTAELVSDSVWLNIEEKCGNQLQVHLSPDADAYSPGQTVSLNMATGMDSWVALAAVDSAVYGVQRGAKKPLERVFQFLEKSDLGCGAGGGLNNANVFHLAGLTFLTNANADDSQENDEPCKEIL
T1 sequence (P13671 22-934 limits assumed, chain 3 of 3): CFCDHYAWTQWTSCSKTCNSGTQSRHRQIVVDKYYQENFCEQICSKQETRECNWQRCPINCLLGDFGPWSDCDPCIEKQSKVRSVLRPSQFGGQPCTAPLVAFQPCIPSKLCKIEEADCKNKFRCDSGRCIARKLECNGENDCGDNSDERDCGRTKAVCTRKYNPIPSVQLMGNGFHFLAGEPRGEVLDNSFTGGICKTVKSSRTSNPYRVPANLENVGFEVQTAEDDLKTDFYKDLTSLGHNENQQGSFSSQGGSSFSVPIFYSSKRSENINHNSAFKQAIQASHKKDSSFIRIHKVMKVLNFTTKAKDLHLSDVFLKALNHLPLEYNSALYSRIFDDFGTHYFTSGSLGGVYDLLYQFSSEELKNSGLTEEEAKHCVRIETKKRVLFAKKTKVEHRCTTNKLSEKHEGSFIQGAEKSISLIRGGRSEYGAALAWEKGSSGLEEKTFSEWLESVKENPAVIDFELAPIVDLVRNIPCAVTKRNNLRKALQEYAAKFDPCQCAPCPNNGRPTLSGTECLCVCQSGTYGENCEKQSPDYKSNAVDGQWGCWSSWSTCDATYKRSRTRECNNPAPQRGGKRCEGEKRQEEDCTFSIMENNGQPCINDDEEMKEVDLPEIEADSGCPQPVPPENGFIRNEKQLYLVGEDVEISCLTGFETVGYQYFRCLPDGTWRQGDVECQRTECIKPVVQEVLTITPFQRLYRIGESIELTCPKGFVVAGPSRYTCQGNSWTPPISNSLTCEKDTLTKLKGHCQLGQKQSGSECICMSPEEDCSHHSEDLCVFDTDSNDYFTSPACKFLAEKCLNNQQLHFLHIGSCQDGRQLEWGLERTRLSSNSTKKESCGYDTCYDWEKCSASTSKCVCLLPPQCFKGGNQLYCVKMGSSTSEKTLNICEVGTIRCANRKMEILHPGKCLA
Procedure: as §1, §2

[2] = biological target: human serum albumin (HSA) (human, UniProt P02768 25-609); experiment: ELISA, rFHR-5 coated at 50 to 0.4 pmol/well, HSA detected with anti-HSA monoclonal antibody
human serum albumin (HSA), sequence (P02768 25-609 limits assumed): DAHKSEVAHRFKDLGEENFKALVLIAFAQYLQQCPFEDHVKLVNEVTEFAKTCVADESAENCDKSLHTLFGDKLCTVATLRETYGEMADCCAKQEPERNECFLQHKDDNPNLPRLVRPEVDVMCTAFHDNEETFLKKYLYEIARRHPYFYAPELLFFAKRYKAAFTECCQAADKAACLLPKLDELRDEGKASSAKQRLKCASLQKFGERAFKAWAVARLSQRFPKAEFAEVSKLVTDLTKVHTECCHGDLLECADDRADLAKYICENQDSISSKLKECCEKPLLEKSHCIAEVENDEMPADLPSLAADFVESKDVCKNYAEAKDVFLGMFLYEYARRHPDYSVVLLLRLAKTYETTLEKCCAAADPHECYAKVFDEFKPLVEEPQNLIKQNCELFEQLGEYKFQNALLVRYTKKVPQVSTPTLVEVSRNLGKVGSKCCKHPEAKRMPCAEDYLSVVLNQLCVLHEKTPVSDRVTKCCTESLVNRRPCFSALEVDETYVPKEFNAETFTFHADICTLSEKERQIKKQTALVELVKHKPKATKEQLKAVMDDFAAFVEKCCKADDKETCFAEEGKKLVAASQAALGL
Procedure: as §1, §2

human C5b-6 complexes [3] = biological target: T1, human C5b-6 complexes; experiment: ELISA, Factor H coated at 50 to 0.4 pmol/well, C5b-6 detected with anti-C6 K1.115
Procedure: as §1, §2

Row | binding result (human C3b) | binding result (human C5b-6 complexes [1]) | binding result [2] | binding result (human C5b-6 complexes [3]) | Binder
1 | binds | no binding (tested: 10 µg/well) | no binding (tested: 10 µg/well) |  | B1
2 |  |  |  | no binding (tested: 10 µg/well) | B2
